# From patent publication US6544520B1, “Hepatitis B virus inhibitors” (priority 1996, dated 2003)
# Where “and” joins values, the source holds several entries; their conditions need not be identical. Identical values can stand only once. Non-standard residues stand in square brackets, D forms with d. Residues, ends and D or L forms follow the SMILES beside them. No end group written: not given here. βAla = NCCC(=O)O
# Target: T1, HBcAg (Hepatitis B virus genotype D subtype adw, UniProt P03147)
# T1 construct: Purification of Particles Comprising Full-Length or Truncated HBcAg; made in house; host or cells: E. coli RB 791
# T1 sequence (P03147 whole entry, the tested form may be a part): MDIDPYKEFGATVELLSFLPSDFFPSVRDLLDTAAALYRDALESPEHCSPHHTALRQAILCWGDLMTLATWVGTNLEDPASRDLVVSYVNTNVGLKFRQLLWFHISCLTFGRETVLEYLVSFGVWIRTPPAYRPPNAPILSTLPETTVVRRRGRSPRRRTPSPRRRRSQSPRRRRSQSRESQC
# Test: Peptide inhibition of fusion phage binding to HBcAg-coated wells
# Details: not given
# Description: Phage-Binding Assay in Solution. […] Aliquots (100 μl) of each mixture were transferred to polystyrene wells (no. 2585, Costar) that had been coated with HBcAg (20 μg/ml in PBS; 125 μl per well). After 1 hr at 6° C. the wells were washed 10 times with TBS/BSA at 0.2 mg/ml. Bound phage were recovered and titered as described in the previous section. All assays were done in triplicate. The HBcAg concentration range was 1.58-50 μM for experiments with phage B2 and B3 and was 0.63-20 μM for experiments with phage B4. For peptide inhibition experiments, fusion phage (10^9 pfu/ml; 200 μl) were incubated with various concentrations of peptide (1 mM-10 nM) in HBcAg-coated wells for 90 min at 6° C.
row,Molecule,inhibition of binding of fusion phage to HBcAg
1,"ALLTRILG (HBV Core Antigen Binding Peptide) [peptide including aa 21-27 of the S region, reference compound]",inability to inhibit
2,GRMKG (not fully specified),inability to inhibit

# Target: T2, association of L HBsAg with HBcAg (Hepatitis B virus genotype D subtype adw, UniProt P03147)
# T2 construct: Purification of Particles Comprising Full-Length or Truncated HBcAg; made in house; host or cells: HBcAg: E. coli RB 791; L HBsAg: in vitro translation in rabbit reticulocyte lysate with canine pancreatic microsomal membranes
# T2 sequence (P03147 whole entry, the tested form may be a part): as above
# Test: biochemical
# Format: binding
# Details: not given
# Description: Inhibitors of the Association of HBsAg with HBcAg. The assay system developed for inhibitors of the interaction between HBsAg and HBcAg involved incubating purified membrane-inserted ^35S-labeled L polypeptide in HBcAg-coated wells and quantitating bound protein by scintillation counting. […] The principal target for polyclonal antibodies to the native, particulate S HBsAg resides between as 110 and aa 150 (31-33). […] However, large molecules, such as immunoglobulins, can cause stearic hindrance over a considerable distance in any compound to which they bind.
# Inhibition of Membrane-Inserted L-Protein Binding to HBcAg by Antibodies and Peptides. Canine pancreatic microsomal membranes containing labeled protein were purified by layering the translation mixture (60 μl) on a 4-ml step gradient of 1-ml intervals of 77% (wt/vol), 30%, 20%, and 10% sucrose containing 20 mM Hepes (adjusted to pH 7.5 with NaOH)/2 mM dithiothreitol for fractionation by centrifugation (50,000 rpm, 2 hr at 4° C.; Sorvall model TsT 60.4 rotor). […] Sucrose gradient-purified L protein (4 μl) was diluted with NET-gel buffer (100 μl) containing various dilutions of either antibody or peptide for inhibition assays. Mixtures were incubated in HBcAg-coated wells (as in the paragraph Isolation of Phage that Bind to HBcAg) for 2 ½ hr at 4° C. and washed five times with NET-gel buffer with 10-min intervals. Wells were placed in scintillation vials containing Ecoscint A (5 ml; National Diagnostics) for quantitation of radioactivity.
row,Molecule,inhibition of the reaction between L HBsAg and HBcAg (in words)
1,"ALLTRILG (HBV Core Antigen Binding Peptide) [peptide including aa 21-27 of the S region, reference compound]",no inhibitory properties
2,GRMKG (not fully specified),no inhibitory properties

# Same assay, conditions: IC50: concentration of peptide required to inhibit the binding of L HBsAg to HBcAg at a half maximal level, free peptide; HBcAg-coated wells
row,Molecule,IC50
1,LLGRMKG [LLGRMKG],46.2 ± 7.4 µM
2,CSCC[C@H](NC(=O)[C@H](CCCNC(=N)N)NC(=O)CNC(=O)[C@H](CC(C)C)NC(=O)[C@H](CC(C)C)NC(=O)[C@@H](N)CO)C(=O)N[C@@H](CCCCN)C(=O)NCC(=O)NCCC(=O)N[C@@H](CS)C(=O)O (H-SLLGRMKG[βAla]C-OH),1.8 ± 0.4 µM
3,HRSLLGRMKGA,0.5 ± 0.04 µM
4,SLLGRMKG,6.4 ± 0.7 µM
5,Ac-SLLGRMKG,26.2 ± 5 µM
6,SLLGRMKGA,2.4 ± 0.2 µM
7,SLLGRMK [SLLGRMK],40.7 ± 4.8 µM
8,CSCC[C@H](NC(=O)[C@H](CCCNC(=N)N)NC(=O)CNC(=O)[C@H](CC(C)C)NC(=O)[C@H](CC(C)C)NC(=O)[C@H](CO)NC(=O)[C@H](CCCNC(=N)N)NC(=O)[C@H](Cc1cnc[nH]1)NC(=O)[C@@H](N)CCSC)C(=O)N[C@@H](CCCCN)C(=O)NCC(=O)N[C@@H](C)C(=O)O,0.8 ± 0.1 µM
9,ALLGRMKG,10 µM and 11 µM
10,CSCC[C@H](NC(=O)[C@H](CCCNC(=N)N)NC(=O)CNC(=O)[C@H](CC(C)C)NC(=O)[C@H](CC(C)C)NC(=O)[C@H](CO)NC(=O)[C@@H](N)CCCNC(=N)N)C(=O)N[C@@H](CCCCN)C(=O)NCC(=O)N[C@@H](C)C(=O)NCCC(=O)N[C@@H](CS)C(=O)O,0.29 ± 0.03 µM
11,CSCC[C@H](NC(=O)[C@H](CCCNC(=N)N)NC(=O)CNC(=O)[C@H](CC(C)C)NC(=O)[C@H](CC(C)C)NC(=O)[C@H](CO)NC(=O)CNC(=O)[C@H](CC(=O)O)NC(=O)[C@H](C)N)C(=O)N[C@@H](CCCCN)C(=O)NCC(=O)N[C@@H](C)C(=O)N[C@@H](C)C(=O)NCC(=O)O,4.5 ± 0.8 µM
12,CSCC[C@H](NC(=O)[C@H](CCCNC(=N)N)NC(=O)CNC(=O)[C@H](CC(C)C)NC(=O)[C@H](CC(C)C)NC(=O)[C@H](CO)NC(=O)CN)C(=O)N[C@@H](CCCCN)C(=O)NCC(=O)N[C@@H](C)C(=O)O,0.79 ± 0.23 µM
13,LGRMKG [LGRMKG],980 ± 157 µM
14,CSCC[C@H](NC(=O)[C@H](CCCNC(=N)N)NC(=O)CNC(=O)[C@H](CC(C)C)NC(=O)[C@H](CC(C)C)NC(=O)[C@H](CO)NC(=O)[C@@H](N)CCCNC(=N)N)C(=O)N[C@@H](CCCCN)C(=O)NCC(=O)N[C@@H](C)C(=O)O,0.29 ± 0.02 µM
15,CSCC[C@H](NC(=O)[C@H](CCCNC(=N)N)NC(=O)CNC(=O)[C@H](CC(C)C)NC(=O)[C@H](CC(C)C)NC(=O)[C@H](CO)NC(=O)CNC(=O)[C@@H](N)CC(=O)O)C(=O)N[C@@H](CCCCN)C(=O)NCC(=O)N[C@@H](C)C(=O)N[C@@H](C)C(=O)O,3 ± 0.4 µM
16,"LDPAFR [LDPAFR, reference compound]",~360 µM
17,CSCC[C@H](NC(=O)[C@H](CCCNC(=N)N)NC(=O)CNC(=O)[C@H](CC(C)C)NC(=O)[C@H](CC(C)C)NC(=O)[C@H](CO)NC(=O)[C@H](CCCNC(=N)N)NC(=O)[C@H](Cc1c[nH]cn1)NC(=O)[C@@H](N)CCSC)C(=O)N[C@@H](CCCCN)C(=O)NCC(=O)N[C@@H](C)C(=O)NCC(=O)NCCC(=O)NCC(=O)N[C@@H](CS)C(=O)O,3.8 ± 0.69 µM

# Same assay, conditions: free peptide; HBcAg-coated wells
row,Molecule,IC50: concentration of peptide required to inhibit the binding of L HBsAg to HBcAg at a half maximal level
1,LLGRM (not fully specified),no
2,ALLPRMKG,no
3,GRMKG (not fully specified),no^2

# Same assay, conditions: inhibition of L HBsAg binding to HBcAg
row,Molecule,fold improvement over the original ALLGRMKG peptide [fold]
1,CSCC[C@H](NC(=O)[C@H](CCCNC(=N)N)NC(=O)CNC(=O)[C@H](CC(C)C)NC(=O)[C@H](CC(C)C)NC(=O)[C@H](CO)NC(=O)[C@@H](N)CCCNC(=N)N)C(=O)N[C@@H](CCCCN)C(=O)NCC(=O)N[C@@H](C)C(=O)O,> 40

# Target: hepatitis B virus core antigen (HBcAg) (hepatitis B virus)
# Sequence (P03147 whole entry): as the sequence (P03147 whole entry, the tested form may be a part) above
# Test: phage-binding assay in solution: phage incubated with HBcAg, free phage caught on HBcAg-coated wells and titered
# Details: not given
row,Molecule,KD^Rel (relative dissociation constant) [µM]
1,"ADGAHRSLLGRMKGA (peptide, not shown: large carriers) [phage 4A-3]",0.00094
2,"ADGTQRSLLGRMKGA (peptide, not shown: large carriers) [phage 4A-26]",0.00084
3,"ADRSLLGRMKGA (peptide, not shown: large carriers) [phage 2A-8]",0.00109
4,"ADGALLGRMKPA (peptide, not shown: large carriers) [phage 2]",0.767
5,"ADGTLLGRMKLA (peptide, not shown: large carriers) [phage 4]",0.02
6,"ADGPRSSLLGRMKGA (peptide, not shown: large carriers) [phage 4A-2]",0.00084
7,"ADGSLLGRMKPA (peptide, not shown: large carriers) [phage 1]",0.322
8,"ADGALLGRMKRA (peptide, not shown: large carriers) [phage 6]",0.181
9,"ADGYQRSLLGRMKGA (peptide, not shown: large carriers) [phage 4A-28]",0.00088
10,"ADGHRSSLLGRMKGA (peptide, not shown: large carriers) [phage 4B-7]",0.0014
11,"ADGSRSSLLGRMKGA (peptide, not shown: large carriers) [phage 4A-1]",0.00196

# Target: hepatitis B virus core antigen (HBcAg) (hepatitis B virus)
# Test: peptide inhibition of 35S-labeled L HBsAg binding to HBcAg-coated wells
# Details: not given
row,Molecule,IC50 [µM]
1,peptide LDPAFR,360
2,peptide ALLGRMKG,10

# Target: hepatitis B virus core antigen (HBcAg) (hepatitis B virus)
# Test: as above
# Details: not given
# Remark: another data set of the same source
row,Molecule,IC50 [µM]
1,peptide CLLGRMKC,652
2,peptide SLLGRMKG,6.4
3,peptide LGRMKG,980
4,peptide LLGRMKG,46.2
5,peptide SLLGRMK,40.7
6,peptide AcSLLGRMKG,26.2
7,peptide ALLGRMKG,11
8,peptide SLLGRMKG(β-A)C,1.8
